# Data published in patent US20100272709A1 (GENERAL HOSPITAL, published 2010).
# B1: ECFP-dynK694A fusion (other, UniProt Q05193 1-864, looked up)
# chain: MGNRGMEDLIPLVNRLQDAFSAIGQNADLDLPQIAVVGGQSAGKSSVLENFVGRDFLPRGSGIVTRRPLVLQLVNATTEYAEFLHCKGKKFTDFEEVRLEIEAETDRVTGTNKGISPVPINLRVYSPHVLNLTLVDLPGMTKVPVGDQPPDIEFQIRDMLMQFVTKENCLILAVSPANSDLANSDALKVAKEVDPQGQRTIGVITKLDLMDEGTDARDVLENKLLPLRRGYIGVVNRSQKDIDGKKDITAALAAERKFFLSHPSYRHLADRMGTPYLQKVLNQQLTNHIRDTLPGLRNKLQSQLLSIEKEVEEYKNFRPDDPARKTKALLQMVQQFAVDFEKRIEGSGDQIDTYELSGGARINRIFHERFPFELVKMEFDEKELRREISYAIKNIHGIRTGLFTPDMAFETIVKKQVKKIREPCLKCVDMVISELISTVRQCTKKLQQYPRLREEMERIVTTHIREREGRTKEQVMLLIDIELAYMNTNHEDFIGFANAQQRSNQMNKKKTSGNQDEILVIRKGWLTINNIGIMKGGSKEYWFVLTAENLSWYKDDEEKEKKYMLSVDNLKLRDVEKGFMSSKHIFALFNTEQRNVYKDYRQLELACETQEEVDSWKASFLRAGVYPERVGDKEKASETEENGSDSFMHSMDPQLERQVETIRNLVDSYMAIVNKTVRDLMPKTIMHLMINNTAEFIFSELLANLYSCGDQNTLMEESAEQAQRRDEMLRMYHALKEALSIIGDINTTTVSTPMPPPVDDSWLQVQSVPAGRRSPTSSPTPQRRAPAVPPARPGSRGPAPGPPPAGSALGGAPPVPSRPGASPDPFGPPPQVPSRPNRAPPGVPSRSGQASPSRPESPRPPFDL
# notes: also called CFP-K694A; not shown: ECFP tag
# Biological target: T1, EYFP-dynK694A fusion (UniProt Q05193 1-864)
# T1 construct: also called YFP-K694A; not shown: EYFP tag
# T1 sequence (looked up): B1 chain
# Experiment: FLIM/FRET in live COS cells; lifetime of the ECFP donor; self-assembly
binder,measurement,value
B1,Mean Lifetime (γ1) ps,1300 ps
